Results published in patent US20240343800A1 (Merck KGaA, published 2024).

Experiments:
[1] = target: T1, human ROR1 (on cells) (human, UniProt Q01973 30-937); test: cell-based or functional assay
[2] = target: T2, mouse ROR1 (on 4T1 cells engineered to overexpress it) (mouse, UniProt Q9Z139 30-937); test: flow cytometry; reference: human ROR1 on MDA-MB-231 cells
T2 construct: whole, on cells; also called muROR1; mROR1

[3] = target: T3, cynomolgus CD3 (on cynomolgus pan-T cells) (cynomolgus, UniProt Q95LI5 22-198); test: flow cytometry, cynomolgus pan-T cells
T3 construct: whole, on cells
Procedure: (§1) After 15-minutes of incubation at room temperature, the cells were washed twice with 200 μL of PBS by centrifugation at 500×g for 5 minutes at room temperature and resuspended in […] of 10% goat serum in BD staining buffer (BD Biosciences, Cat No: 554657). […] The plates were then covered with foil to avoid direct light and incubated for 60 minutes at 4° C. […] After incubating for 30 minutes at 4° C., the cells were washed twice with 200 μL of PBS by centrifugation at 500×g for 5 minutes at room temperature and resuspended into 100 μL of fixation buffer (BioLegend, Cat No: 420801). The samples were then analyzed on a flow cytometer for binding signal using FlowJo software. ROR and CD3 binding EC₅₀s (concentration vs mean fluorescence intensity (MFI)) for reference molecules and test bispecific TCEs were obtained using 4-parameter non-linear regression curve fitting in GraphPad Prism.

[4] = target: T4, human CD3 (on Jurkat T cells or human CD8+ T cells) (human, UniProt P07766 23-207; P09693 23-182; P04234 22-171; P20963 22-164); test: flow cytometry, human CD8+ T cells
T4 construct: Entries are printed with signal peptides; also called huCD3; CD3ε
Procedure: as §1

[5] = target: T1, human ROR1 (on cells); test: cell-based or functional assay; remark: listed apart in the source
[6] = target: T1, human ROR1 (on cells); test: flow cytometry, ROR1+ MDA-MB-231 cells
Procedure: as §1

[7] = target: T1, human ROR1 (on cells); test: cell-based or functional assay; remark: listed apart in the source
[8] = target: T1, human ROR1 (on cells); test: cell-based or functional assay; remark: listed apart in the source
[9] = target: T2, mouse ROR1 (on 4T1 cells engineered to …); test: flow cytometry, 4T1 cells overexpressing mouse ROR1
Procedure: as §1

T4 sequence (P07766 23-207 limits assumed, chain 1 of 4): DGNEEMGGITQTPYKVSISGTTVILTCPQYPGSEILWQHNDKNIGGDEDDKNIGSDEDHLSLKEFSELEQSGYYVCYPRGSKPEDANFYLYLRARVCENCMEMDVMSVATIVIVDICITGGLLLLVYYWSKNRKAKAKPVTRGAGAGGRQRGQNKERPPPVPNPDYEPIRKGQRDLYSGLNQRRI
T4 sequence (P09693 23-182 limits assumed, chain 2 of 4): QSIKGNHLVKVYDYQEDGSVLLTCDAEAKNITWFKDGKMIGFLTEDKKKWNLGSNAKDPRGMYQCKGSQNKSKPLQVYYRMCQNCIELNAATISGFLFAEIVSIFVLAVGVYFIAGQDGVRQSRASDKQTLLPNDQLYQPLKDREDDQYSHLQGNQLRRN
T4 sequence (P04234 22-171 limits assumed, chain 3 of 4): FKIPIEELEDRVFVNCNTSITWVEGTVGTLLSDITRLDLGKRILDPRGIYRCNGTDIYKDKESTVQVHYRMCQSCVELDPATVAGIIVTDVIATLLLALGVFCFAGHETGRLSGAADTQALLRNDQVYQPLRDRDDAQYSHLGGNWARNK
T4 sequence (P20963 22-164 limits assumed, chain 4 of 4): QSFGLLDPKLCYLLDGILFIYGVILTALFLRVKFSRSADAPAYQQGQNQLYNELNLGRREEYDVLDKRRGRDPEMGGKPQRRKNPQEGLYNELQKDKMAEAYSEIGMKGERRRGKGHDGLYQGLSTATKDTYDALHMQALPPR
T3 sequence (Q95LI5 22-198): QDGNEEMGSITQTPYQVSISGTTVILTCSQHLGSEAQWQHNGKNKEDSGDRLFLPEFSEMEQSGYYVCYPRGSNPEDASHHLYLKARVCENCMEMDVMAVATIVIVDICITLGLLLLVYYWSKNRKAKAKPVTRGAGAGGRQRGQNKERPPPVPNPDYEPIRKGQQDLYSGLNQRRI

B1: 82H02 TCE #4 (sequence optimized 82H02 bispecific TCE in Format 1A, low ROR1 / low CD3 affinity) (bispecific antibody)
heavy 1: EVQLVESGGGLVQPGGSLKLSCAASGFTFNTYAMNWVRQASGKGLEWVGRIRSKYNNYATYYADSVKGRFTISRDDSKNTLYLQMNSLKTEDTAVYYCVRHGNFGNSYVSWFAYWGQGTMVTVSSASTKGPSVFPLAPSSKSTSGGTAALGCLVKDYFPEPVTVSWNSGALTSGVHTFPAVLQSSGLYSLSSVVTVPSSSLGTQTYICNVNHKPSNTKVDKKVEPKSCDKTHTCPPCPAPEAAGGPSVFLFPPKPKDTLMISRTPEVTCVVVDVSHEDPEVKFNWYVDGVEVHNAKTKPREEQYNSTYRVVSVLTVLHQDWLNGKEYKCKVSNKALGAPIEKTISKAKGQPFRPEVHLLPPSREEMTKNQVSLTCLARGFYPKDIAVEWESNGQPENNYKTTPSRQEPSQGTTTFAVTSKLTVDKSRWQQGNVFSCSVMHEALHNHYTQKTISLSPGK
heavy 2: EIVLTQSPATLSLSPGERATLSCRASQSVSSYLAWYQQKPGQAPRLLIYDASNRATGIPARFSGSGSGTDFTLTISSLEPEDFAVYYCQQRSNWPPFTFGQGTRLEIKGGGGSGGGGSGGGGSGGGGSEVQLLESGGGLVQPGGSLRLSCAASGFTFTSYAMSWVRQAPGKGLEWVSTISGSGGGTYYTDSVKGRFTISRDNSKNTLYLQMNSLRAEDTAVYYCAQGSSIFDYWGQGTLVTVSSEPKSSDKTHTCPPCPAPEAAGGPSVFLFPPKPKDTLMISRTPEVTCVVVDVSHEDPEVKFNWYVDGVEVHNAKTKPREEQYNSTYRVVSVLTVLHQDWLNGKEYKCKVSNKALGAPIEKTISKAKGQPREPQVYTLPPPSEELALNELVTLTCLVKGFYPSDIAVEWLQGSQELPREKYLTWAPVLDSDGSFFLYSILRVAAEDWKKGDTFSCSVMHEALHNHYTQKSLDRSPGKGGGGSGGGGSGGGGSGGGGSEIVLTQSPATLSLSPGERATLSCRASQSVSSYLAWYQQKPGQAPRLLIYDASNRATGIPARFSGSGSGTDFTLTISSLEPEDFAVYYCQQRSNWPPFTFGQGTRLEIKGGGGSGGGGSGGGGSGGGGSEVQLLESGGGLVQPGGSLRLSCAASGFTFTSYAMSWVRQAPGKGLEWVSTISGSGGGTYYTDSVKGRFTISRDNSKNTLYLQMNSLRAEDTAVYYCAQGSSIFDYWGQGTLVTVSS
light: QTVVTQEPSLTVSPGGTVTLTCASSTGAVTTSNYANWVQQKPGQAPRALIGGTNKRAPGTPARFSGSLLGGKAALTLSGVQPEDEAEYYCALWYSNLWVFGGGTKLTVLGQPKAAPSVTLFPPSSEELQANKATLVCLISDFYPGAVTVAWKADSSPVKAGVETTTPSKQSNNKYAASSYLSLTPEQWKSHRSYSCQVTHEGSTVEKTVAPTECS
notes: also called 82H02 #4; 82H02 VL1.06x1F3.5-VH1.01-VL1.01
B1 was tested, and the “IFNγ release EC50, PBMCs: MDA-MB-231” value [1] was 509 nM, the “Max IFNγ, PBMCs: MDA-MB-231” value [1] was 764 pg/mL and the “fold difference in apparent ROR1 binding affinity between human and mouse ROR1” value [2] was ~6.5 fold. The EC50 [3] was 27.7 nM, the EC50 [4] was 20.4 nM and the “TDCC EC50, PBMCs: MDA-MB-231” value [5] was 168 nM. The EC50 [6] was 76.5 nM, the “IFNγ release AUC, PBMCs: MDA-MB-231-0.2” value [7] was 1.09e+06 and the “IFNγ release AUC, PBMCs: MDA-MB-231-0.4” value [7] was 1.42e+06. For the same binder, the “IFNγ release AUC, PBMCs: MDA-MB-231-0.6” value [7] was 8.23e+06, the “IFNγ release AUC, PBMCs: MDA-MB-231-1.3” value [7] was 4.11e+06 and the “IFNγ release AUC, PBMCs: MDA-MB-231-7” value [7] was 4.14e+06. The “IFNγ release EC50, PBMCs: MDA-MB-231-0.2” value [7] was 280 pM, the “IFNγ release EC50, PBMCs: MDA-MB-231-0.4” value [7] was 160 pM and the “IFNγ release EC50, PBMCs: MDA-MB-231-0.6” value [7] was 121 pM. The “IFNγ release EC50, PBMCs: MDA-MB-231-1.3” value [7] was 35.1 pM, the “IFNγ release EC50, PBMCs: MDA-MB-231-7” value [7] was 30.9 pM and the “IFNγ release Emax, PBMCs: MDA-MB-231-0.2” value [7] was 1730%. The “IFNγ release Emax, PBMCs: MDA-MB-231-0.4” value [7] was 1840%, the “IFNγ release Emax, PBMCs: MDA-MB-231-0.6” value [7] was 2780% and the “IFNγ release Emax, PBMCs: MDA-MB-231-1.3” value [7] was 4560%. For the same binder, the “IFNγ release Emax, PBMCs: MDA-MB-231-7” value [7] was 4480%, the “TDCC AUC, PBMCs: MDA-MB-231-0.2” value [8] was 25900 and the “TDCC AUC, PBMCs: MDA-MB-231-0.4” value [8] was 41900. For the same binder, the “TDCC AUC, PBMCs: MDA-MB-231-0.6” value [8] was 46300, the “TDCC AUC, PBMCs: MDA-MB-231-1.3” value [8] was 58900 and the “TDCC AUC, PBMCs: MDA-MB-231-7” value [8] was 68300. The “TDCC EC50, PBMCs: MDA-MB-231-0.2” value [8] was 22.3 pM, the “TDCC EC50, PBMCs: MDA-MB-231-0.4” value [8] was 19.6 pM and the “TDCC EC50, PBMCs: MDA-MB-231-0.6” value [8] was 15.2 pM. The “TDCC EC50, PBMCs: MDA-MB-231-1.3” value [8] was 11.2 pM, the “TDCC EC50, PBMCs: MDA-MB-231-7” value [8] was 6.53 pM and the “TDCC Emax, PBMCs: MDA-MB-231-0.2” value [8] was 27.4%. For the same binder, the “TDCC Emax, PBMCs: MDA-MB-231-0.4” value [8] was 45%, the “TDCC Emax, PBMCs: MDA-MB-231-0.6” value [8] was 51.5% and the “TDCC Emax, PBMCs: MDA-MB-231-1.3” value [8] was 60.4%. For the same binder, the “TDCC Emax, PBMCs: MDA-MB-231-7” value [8] was 70.3% and the EC50 [9] was 496 nM.
